Where a chain is given by its changes, count along the chain named.
B1: MERTK (protein)
chain: KRVQETKFGNAFTEEDSELVVNYIAKKSFCRRAIELTLHSLGVSEELQNKLEDVVIDRNLLILGKILGEGEFGSVMEGNLKQEDGTSLKVAVKTMKLDNSSQREIEEFLSEAACMKDFSHPNVIRLLGVCIEMSSQGIPKPMVILPFMKYGDLHTYLLYSRLETGPKHIPLQTLLKFMVDIALGMEYLSNRNFLHRDLAARNCMLRDDMTVCVADFGLSKKIYSGDYYRQGRIAKMPVKWIAIESLADRVYTSKSDVWAFGVTMWEIATRGMTPYPGVQNHEMYDYLLHGHRLKQPEDCLDELYEIMYSCWRTDPLDRPTFSVLRLQLEKLLESLPDVRNQADVIYVNTQLLESSEGLAQGSTLAPLDLNIDPDSIIASCTPRAAISVVTAEVHDSKPHEGRYILNGGSEEWEDLTSAPSAAVTAEKNSVLPGERLVRNGVSWSHSSMLPLGSSLPDELLFADDSSEGSEVLM
modifications: left off: a dimerising Fc or GST
B2: MET (protein)
chain: KKRKQIKDLGSELVRYDARVHTPHLDRLVSARSVSPTTEMVSNESVDYRATFPEDQFPNSSQNGSCRQVQYPLTDMSPILTSGDSDISSPLLQNTVHIDLSALNPELVQAVQHVVIGPSSLIVHFNEVIGRGHFGCVYHGTLLDNDGKKIHCAVKSLNRITDIGEVSQFLTEGIIMKDFSHPNVLSLLGICLRSEGSPLVVLPYMKHGDLRNFIRNETHNPTVKDLIGFGLQVAKGMKYLASKKFVHRDLAARNCMLDEKFTVKVADFGLARDMYDKEYYSVHNKTGAKLPVKWMALESLQTQKFTTKSDVWSFGVLLWELMTRGAPPYPDVNTFDITVYLLQGRRLLQPEYCPDPLYEVMLKCWHPKAEMRPSFSELVSRISAIFSTFIGEHYVHVNATYVNVKCVAPYPSLLSSEDNADDEVDTRPASFWETS
modifications: left off: small tags and cut ends
B3: RET (protein)
chain: HCYHKFAHKPPISSAEMTFRRPAQAFPVSYSSSGARRPSLDSMENQVSVDAFKILEDPKWEFPRKNLVLGKTLGEGEFGKVVKATAFHLKGRAGYTTVAVKMLKENASPSELRDLLSEFNVLKQVNHPHVIKLYGACSQDGPLLLIVEYAKYGSLRGFLRESRKVGPGYLGSGGSRNSSSLDHPDERALTMGDLISFAWQISQGMQYLAEMKLVHRDLAARNILVAEGRKMKISDFGLSRDVYEEDSYVKRSQGRIPVKWMAIESLFDHIYTTQSDVWSFGVLLWEIVTLGGNPYPGIPPERLFNLLKTGHRMERPDNCSEEMYRLMLQCWKQEPDKRPVFADISKDLEKMMVKRRDYLDLAASTPSDSLIYDDGLSEEETPLVDCNNAPLPRALPSTWIENKLYGMSDPNWPGESPVPLTRADGTNTGFPRYPNDSVYANWMLSPSAAKLMDTFDS
modifications: left off: a dimerising Fc or GST
B4: MUSK (protein)
chain: CCRRRKQWKNKKRESAAVTLTTLPSELLLDRLHPNPMYQRMPLLLNPKLLSLEYPRNNIEYVRDIGEGAFGRVFQARAPGLLPYEPFTMVAVKMLKEEASADMQADFQREAALMAEFDNPNIVKLLGVCAVGKPMCLLFEYMAYGDLNEFLRSMSPHTVCSLSHSDLSMRAQVSSPGPPPLSCAEQLCIARQVAAGMAYLSERKFVHRDLATRNCLVGENMVVKIADFGLSRNIYSADYYKANENDAIPIRWMPPESIFYNRYTTESDVWAYGVVLWEIFSYGLQPYYGMAHEEVIYYVRDGNILSCPENCPVELYNLMRLCWSKLPADRPSFTSIHRILERMCERAEGTVSV
modifications: left off: a dimerising Fc or GST
B5: PDGFRB (protein)
chain: MLWQKKPRYEIRWKVIESVSSDGHEYIYVDPMQLPYDSTWELPRDQLVLGRTLGSGAFGQVVEATAHGLSHSQATMKVAVKMLKSTARSSEKQALMSELKIMSHLGPHLNVVNLLGACTKGGPIYIITEYCRYGDLVDYLHRNKHTFLQHHSDKRRPPSAELYSNALPVGLPLPSHVSLTGESDGGYMDMSKDESVDYVPMLDMKGDVKYADIESSNYMAPYDNYVPSAPERTCRATLINESPVLSYMDLVGFSYQVANGMEFLASKNCVHRDLAARNVLICEGKLVKICDFGLARDIMRDSNYISKGSTFLPLKWMAPESIFNSLYTTLSDVWSFGILLWEIFTLGGTPYPELPMNEQFYNAIKRGYRMAQPAHASDEIYEIMQKCWEEKFEIRPPFSQLVLLLERLLGEGYKKKYQQVDEEFLRSDHPAILRSQARLPGFHGLRSPLDTSSVLYTAVQPNEGDNDYIIPLPDPKPEVADEGPLEGSPSLASSTLNEVNTSSTISCDSPLEPQDEPEPEPQLELQVEPEPELEQLPDSGCPAPRAEAEDSFL
modifications: left off: small tags and cut ends
B6: ABL2(ARG) (protein)
chain: MGQQVGRVGEAPGLQQPQPRGIRGSSAARPSGRRRDPAGRTTETGFNIFTQHDHFASCVEDGFEGDKTGGSSPEALHRPYGCDVEPQALNEAIRWSSKENLLGATESDPNLFVALYDFVASGDNTLSITKGEKLRVLGYNQNGEWSEVRSKNGQGWVPSNYITPVNSLEKHSWYHGPVSRSAAEYLLSSLINGSFLVRESESSPGQLSISLRYEGRVYHYRINTTADGKVYVTAESRFSTLAELVHHHSTVADGLVTTLHYPAPKCNKPTVYGVSPIHDKWEMERTDITMKHKLGGGQYGEVYVGVWKKYSLTVAVKTLKEDTMEVEEFLKEAAVMKEIKHPNLVQLLGVCTLEPPFYIVTEYMPYGNLLDYLRECNREEVTAVVLLYMATQISSAMEYLEKKNFIHRDLAARNCLVGENHVVKVADFGLSRLMTGDTYTAHAGAKFPIKWTAPESLAYNTFSIKSDVWAFGVLLWEIATYGMSPYPGIDLSQVYDLLEKGYRMEQPEGCPPKVYELMRACWKWSPADRPSFAETHQAFETMFHDSSISEEVAEELGRAASSSSVVPYLPRLPILPSKTRTLKKQVENKENIEGAQDATENSASSLAPGFIRGAQASSGSPALPRKQRDKSPSSLLEDAKETCFTRDRKGGFFSSFMKKRNAPTPPKRSSSFREMENQPHKKYELTGNFSSVASLQHADGFSFTPAQQEANLVPPKCYGGSFAQRNLCNDDGGGGGGSGTAGGGWSGITGFFTPRLIKKTLGLRAGKPTASDDTSKPFPRSNSTSSMSSGLPEQDRMAMTLPRNCQRSKLQLERTVSTSSQPEENVDRANDMLPKKSEESAAPSRERPKAKLLPRGATALPLRTPSGDLAITEKDPPGVGVAGVAAAPKGKEKNGGARLGMAGVPEDGEQPGWPSPAKAAPVLPTTHNHKVPVLISPTLKHTPADVQLIGTDSQGNKFKLLSEHQVTSSGDKDRPRRVKPKCAPPPPPVMRLLQHPSICSDPTEEPTALTAGQSTSETQEGGKKAALGAVPISGKAGRPVMPPPQVPLPTSSISPAKMANGTAGTKVALRKTKQAAEKISADKISKEALLECADLLSSALTEPVPNSQLVDTGHQLLDYCSGYVDCIPQTRNKFAFREAVSKLELSLQELQVSSAAAGVPGTNPVLNNLLSCVQEISDVVQR
modifications: left off: small tags and cut ends
B7: PDGFRA (protein)
chain: KQKPRYEIRWRVIESISPDGHEYIYVDPMQLPYDSRWEFPRDGLVLGRVLGSGAFGKVVEGTAYGLSRSQPVMKVAVKMLKPTARSSEKQALMSELKIMTHLGPHLNIVNLLGACTKSGPIYIITEYCFYGDLVNYLHKNRDSFLSHHPEKPKKELDIFGLNPADESTRSYVILSFENNGDYMDMKQADTTQYVPMLERKEVSKYSDIQRSLYDRPASYKKKSMLDSEVKNLLSDDNSEGLTLLDLLSFTYQVARGMEFLASKNCVHRDLAARNVLLAQGKIVKICDFGLARDIMHDSNYVSKGSTFLPVKWMAPESIFDNLYTTLSDVWSYGILLWEIFSLGGTPYPGMMVDSTFYNKIKSGYRMAKPDHATSEVYEIMVKCWNSEPEKRPSFYHLSEIVENLLPGQYKKSYEKIHLDFLKSDHPAVARMRVDSDNAYIGVTYKNEEDKLKDWEGGLDEQRLSADSGYIIPLPDIDPVPEEEDLGKRNRHSSQTSEESAIETGSSSSTFIKREDETIEDIDMMDDIGIDSSDLVEDSFL
modifications: left off: a dimerising Fc or GST
B8: PDGFRA, T674I (protein)
chain: B7 chain with T125I
modifications: left off: a dimerising Fc or GST
B9: TYRO3 (protein)
chain: LRKRRKETRFGQAFDSVMARGEPAVHFRAARSFNRERPERIEATLDSLGISDELKEKLEDVLIPEQQFTLGRMLGKGEFGSVREAQLKQEDGSFVKVAVKMLKADIIASSDIEEFLREAACMKEFDHPHVAKLVGVSLRSRAKGRLPIPMVILPFMKHGDLHAFLLASRIGENPFNLPLQTLIRFMVDIACGMEYLSSRNFIHRDLAARNCMLAEDMTVCVADFGLSRKIYSGDYYRQGCASKLPVKWLALESLADNLYTVQSDVWAFGVTMWEIMTRGQTPYAGIENAEIYNYLIGGNRLKQPPECMEDVYDLMYQCWSADPKQRPSFTCLRMELENILGQLSVLSASQDPLYINIERAEEPTAGGSLELPGRDQPYSGAGDGSGMGAVGGTPSDCRYILTPGGLAEQPGQAEHQPESPLNETQRLLLLQQGLLPHSSC
modifications: left off: a dimerising Fc or GST
B10: ROS1 (protein)
chain: HRRLKNQKSAKEGVTVLINEDKELAELRGLAAGVGLANACYAIHTLPTQEEIENLPAFPREKLTLRLLLGSGAFGEVYEGTAVDILGVGSGEIKVAVKTLKKGSTDQEKIEFLKEAHLMSKFNHPNILKQLGVCLLNEPQYIILELMEGGDLLTYLRKARMATFYGPLLTLVDLVDLCVDISKGCVYLERMHFIHRDLAARNCLVSVKDYTSPRIVKIGDFGLARDIYKNDYYRKRGEGLLPVRWMAPESLMDGIFTTQSDVWSFGILIWEILTLGHQPYPAHSNLDVLNYVQTGGRLEPPRNCPDDLWNLMTQCWAQEPDQRPTFHRIQDQLQLFRNFFLNSIYKSRDEANNSGVINESFEGEDGDVICLNSDDIMPVALMETKNREGLNYMVLATECGQGEEKSEGPLGSQESESCGLRKEEKEPHADKDFCQEKQVAYCPSGKPEGLNYACLTHSGYGDGSD
modifications: left off: a dimerising Fc or GST

System: kinases of Table 6 on Myelin Basic Protein (MBP)
Assay: Kinase assay using MBP substrate, ProQ Diamond stain (Table 6)
Format: biochemical
Conditions: kinase printed on MBP-coated slide; 20 uM ATP, 30° C.; ProQ Diamond Microarray Stain; graded Strong/Weak/Negative
How it was run: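 Reactions ran at 30° C. with 20 uM ATP, 4 mM MgCl2 and 5% DMSO in HEPES pH 7.5, inhibitor added or omitted. Kinases had been arrayed onto slide-bound dephosphorylated bovine MBP; phospho-signal read after ProQ Diamond staining.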

Row | Molecule | MBP Kinase Activity
1 | B1 | Strong
2 | B2 | Strong
3 | B3 | Strong
4 | B4 | Negative
5 | B5 | Strong
6 | B6 | Weak
7 | B7 | Strong
8 | B8 | Negative
9 | B9 | Strong
10 | B10 | Strong
